Results from PMC5021511 (Methods in cell biology, 2016).

Target: the molecule itself
Assay: FRET or BRET

B1: Cdc11(E294C)-capped and otherwise Cys-less septin heterooctamer, labeled with AF555-maleimide (donor) or AF647-maleimide (acceptor) (complex, S. cerevisiae)
chain 1: MSGIIDASSALRKRKHLKRGITFTVMIVGQSGSGRSTFINTLFGQQVVDTSTTILLPTDTSTEIDLQLREETVELEDDEGVKIQLNIIDTPGFGDSLDNSPSFEIISDYIRHQYDEILLEESRVRRNPRFKDGRVHAALYLINPTGHGLKEIDVEFIRQLGSLVNIIPVISKSDSLTRDELKLNKKLIMEDIDRWNLPIYNFPFDEDEISDEDYETNMYLRTLLPFAIIGSNEVYEMGGDVGTIRGRKYPWGILDVEDSSISDFVILRNALLISHLHDLKNYTHEILYERYRTCALSGESVAAESIRPNLTKLNGSSSSSTTTRRNTNPFKQSNNINNDVLNPASDMHGQSTGENNETYMTREEQIRLEEERLKAFEERVQQELLLKRQELLQREKELREIEARLEKEAKIKQEE
chain 2: MSAATATAAPVPPPVGISNLPNQRYKIVNEEGGTFTVMLAGESGLGKTTFINTLFQTVLKRADGQQHRQEPIRKTVEIDITRALLEEKHFELRVNVIDTPGFGDNVNNNKAWQPLVDFIDDQHDSYMRQEQQPYRTKKFDLRVHAVLYFIRPTGHGLKPIDIETMKRLSTRANLIPVIAKADTLTAQELQQFKSRIRQVIEAQEIRIFTPPLDADSKEDAKSGSNPDSAAVEHARQLIEAMPFAIVGSEKKFDNGQGTQVVARKYPWGLVEIENDSHSDFRKLRALLLRTYLLDLISTTQEMHYETYRRLRLEGHENTGEGNEDFTLPAIAPARKLSHNPRYKEEENALKKYFTDQVKAEEQRFRQWEQNIVNERIRLNGDLEEIQGKVKKLEEQVKSLQVKKSHLK
chain 3: MSLKEEQVSIKQDPEQEERQHDQFNDVQIKQESQDHDGVDSQYTNGTQNDDSERFEAAESDVKVEPGLGMGITSSQSEKGQVLPDQPEIKFIRRQINGYVGFANLPKQWHRRSIKNGFSFNLLVVGPDGIGKTTLMKTLFNNDDIEANLVKDYEEELANDQEEEEGQGEGHENQSQEQRHKVKIKSYESVIEENGVKLNLNVIDTEGFGDFLNNDQKSWDPIIKEIDSRFDQYLDAENKINRHSINDKRIHAVLYFIEPTGHYLKPLDLKFMQSVYEKVNLIPVIAKSDILTDEEILSFKKTIMNQLIQSNIELFKPPIYSNDDAENSHLSERLFSSLPYAVIGSNDIVENYSGNQVRGRSYPWGVIEVDNDNHSDFNLLKNLLIKQFMEELKERTSKILYENYRSSKLAKLGIKQDNSVFKEFDPISKQQEEKTLHEAKLAKLEIEMKTVFQQKVSEKEKKLQKSETELFARHKEMKEKLTKQLKALEDKKKQLELSINSASPNVNHSPVPTKKKGFLR
chain 4: MDPLSSVQPASYVGFDTITNQIEHRLLKKGFQFNIMVVGQSGLGKSTLINTLFASHLIDSATGDDISALPVTKTTEMKISTHTLVEDRVRLNINVIDTPGFGDFIDNSKAWEPIVKYIKEQHSQYLRKELTAQRERFITDTRVHAILYFLQPNGKELSRLDVEALKRLTEIANVIPVIGKSDTLTLDERTEFRELIQNEFEKYNFKIYPYDSEELTDEELELNRSVRSIIPFAVVGSENEIEINGETFRGRKTRWSAINVEDINQSDFVYLREFLIRTHLQDLIETTSYIHYEGFRARQLIALKENANSRSSAHMSSNAIQR
modifications: Alexa Fluor 555 maleimide (donor batch) or Alexa Fluor 647 maleimide (acceptor batch) on C294
Kd: 24.3 ± 13.7 nM
